Experimental data published in patent publication US20240010750A1 (Bayer, published 2024).

Experiments:
[1] = biological target: T1, cynomolgus alpha2-Antiplasmin (cynomolgus (Macaca fascicularis), UniProt P08697 28-491 (human entry)); assay: ELISA (Example 3): antigen coated at 1 ug/ml, detection with anti-human lambda light chain-peroxidase and Amplex Red, RFU
T1 construct: Made in house in the same way as the rabbit protein; also called cynomolgus A2AP; Macaca fascicularis A2AP
T1 chain: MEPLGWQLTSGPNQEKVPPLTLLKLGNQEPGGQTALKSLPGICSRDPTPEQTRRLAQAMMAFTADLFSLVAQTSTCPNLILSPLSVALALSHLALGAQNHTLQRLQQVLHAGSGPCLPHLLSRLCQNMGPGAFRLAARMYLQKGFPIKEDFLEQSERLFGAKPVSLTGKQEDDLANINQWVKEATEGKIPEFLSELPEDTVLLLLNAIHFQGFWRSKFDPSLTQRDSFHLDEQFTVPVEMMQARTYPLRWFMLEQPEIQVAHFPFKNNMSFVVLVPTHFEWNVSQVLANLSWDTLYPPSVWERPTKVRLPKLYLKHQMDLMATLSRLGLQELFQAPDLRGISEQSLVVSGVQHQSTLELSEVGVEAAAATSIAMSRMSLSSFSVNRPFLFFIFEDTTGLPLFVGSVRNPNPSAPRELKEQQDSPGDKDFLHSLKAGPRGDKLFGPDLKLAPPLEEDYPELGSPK
Method: A standard ELISA format was used for analyzing the binding affinity of Fabs of this invention to human and rabbit alpha-2-Antiplasmin, respectively. Antigens were coated to black 384 well Maxisorp microtiter plates (Nunc; catalogue number 460518), diluted to a concentration of 1 μg/ml in 1× Coating Buffer (Candor Bioscience; catalogue number 121125). Plates were incubated overnight at 4° C. After overnight incubation, plates were washed 2× with 50 μl/well using PBS+0.05% Tween 20. Following this, 50 μl/well of blocking buffer (Smart Block; Candor Bioscience; catalogue number 113500) was added and the plates were incubated for 1 hour at room temperature. Afterwards, plates were washed for 3× using […] PBS+0.05% Tween 20 buffer. Fabs of this invention were added at different concentrations in a final volume of 30 μl/well. Plates were incubated for 1 hour at room temperature. Following this incubation step, plates were washed for 3× using 50 μl/well of a PBS+0.05% Tween 20 buffer. For the detection of bound Fabs and full-length antibodies, the anti-Human Lambda Light Chains (Bound and Free)—Peroxidase antibody (Sigma; catalogue number A5175) was diluted by the factor of 1:10.000 in 10% Blocking Buffer. 30 μl/well of this diluted detection antibody was added and plates are incubated for 1 hour at room temperature. […]

[2] = biological target: T1, cynomolgus alpha2-Antiplasmin; assay: cell-based or functional assay
[3] = biological target: T2, human alpha2-Antiplasmin (human, UniProt P08697 40-491); assay: cell-based or functional assay
T2 sequence: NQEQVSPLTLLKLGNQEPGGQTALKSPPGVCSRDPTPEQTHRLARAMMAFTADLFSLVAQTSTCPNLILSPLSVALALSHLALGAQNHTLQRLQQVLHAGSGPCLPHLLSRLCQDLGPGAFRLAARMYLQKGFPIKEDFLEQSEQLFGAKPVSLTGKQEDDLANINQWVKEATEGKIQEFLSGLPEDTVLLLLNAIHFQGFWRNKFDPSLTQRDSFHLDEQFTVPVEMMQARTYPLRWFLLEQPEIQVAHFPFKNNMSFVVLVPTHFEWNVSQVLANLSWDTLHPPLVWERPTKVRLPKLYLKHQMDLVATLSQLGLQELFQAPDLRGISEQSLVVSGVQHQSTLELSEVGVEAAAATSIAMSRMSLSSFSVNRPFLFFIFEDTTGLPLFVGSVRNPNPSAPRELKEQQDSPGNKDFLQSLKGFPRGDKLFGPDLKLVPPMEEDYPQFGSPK

[4] = biological target: T3, rabbit alpha2-Antiplasmin (rabbit (Oryctolagus cuniculus)); assay: cell-based or functional assay
T3 chain: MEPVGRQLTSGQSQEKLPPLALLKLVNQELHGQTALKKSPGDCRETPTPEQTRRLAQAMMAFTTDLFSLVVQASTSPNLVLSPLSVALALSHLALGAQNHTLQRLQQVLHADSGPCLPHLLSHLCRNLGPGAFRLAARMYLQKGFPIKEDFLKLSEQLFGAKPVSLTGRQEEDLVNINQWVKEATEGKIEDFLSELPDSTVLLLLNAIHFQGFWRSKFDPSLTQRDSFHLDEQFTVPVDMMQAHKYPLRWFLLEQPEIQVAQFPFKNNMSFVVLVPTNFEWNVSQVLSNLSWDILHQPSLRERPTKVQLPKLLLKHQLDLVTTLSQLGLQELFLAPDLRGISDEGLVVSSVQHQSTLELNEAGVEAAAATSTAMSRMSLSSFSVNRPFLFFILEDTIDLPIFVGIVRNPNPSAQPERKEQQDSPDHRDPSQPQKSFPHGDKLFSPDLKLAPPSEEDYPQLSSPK

B1: TPP-12387 hIgG1 (antibody, V domains shown)
VH: EVQLLESGGGLVQPGGSLRLSCAASGFTFDDYAMSWVRQAPGKGLEWVSAIGTGGGTYYADSVKGRFTISRDNSKNTLYLQMNSLRAEDTAVYYCAREYYDSSGYYHLDYWGQGTLVTVSS
VL: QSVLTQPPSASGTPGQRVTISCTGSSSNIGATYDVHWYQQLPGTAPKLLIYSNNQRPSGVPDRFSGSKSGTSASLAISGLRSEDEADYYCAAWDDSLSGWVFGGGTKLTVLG
notes: Fully human IgG1 lambda from the BioInvent n-CoDeR Fab lambda library; parental lead antibody
In the case of B1, the “EC50 (read off the curve)” value [1] is reported as about 100 nM, the “function blocking activity IC50, 1st exp. (FIG. 6.2)” value [2] is reported as 160 nM and the “function blocking activity IC50, 2nd exp.” value [2] is reported as 160 nM. The “function blocking activity IC50, 1st exp. (FIG. 5)” value [3] was 170 nM, the “function blocking activity IC50, 2nd exp.” value [3] was 180 nM and the “function blocking activity IC50, 3rd exp.” value [3] was 180 nM. The “function blocking activity EC50 (FIG. 5 legend)” value [4] was 1.4 nM, the “printed as 'binding activity' in the sentence on function blocking (IC50), 1st exp.” value [4] was 14 nM and the “printed as 'binding activity' in the sentence on function blocking (IC50), 2nd exp.” value [4] was 13 nM. For the same binder, the “printed as 'binding activity' in the sentence on function blocking (IC50), 3rd exp.” value [4] was 15 nM.
